Assay results as given in patent US20060172941A1 (published 2006).

Molecular target: VEGF receptor on endothelial cells
Assay: inhibition of radiolabeled VEGF binding to its receptor on endothelial cells; peptide concentration varied

Sequence of VEGF receptor on endothelial cells (chain, as listed by the source): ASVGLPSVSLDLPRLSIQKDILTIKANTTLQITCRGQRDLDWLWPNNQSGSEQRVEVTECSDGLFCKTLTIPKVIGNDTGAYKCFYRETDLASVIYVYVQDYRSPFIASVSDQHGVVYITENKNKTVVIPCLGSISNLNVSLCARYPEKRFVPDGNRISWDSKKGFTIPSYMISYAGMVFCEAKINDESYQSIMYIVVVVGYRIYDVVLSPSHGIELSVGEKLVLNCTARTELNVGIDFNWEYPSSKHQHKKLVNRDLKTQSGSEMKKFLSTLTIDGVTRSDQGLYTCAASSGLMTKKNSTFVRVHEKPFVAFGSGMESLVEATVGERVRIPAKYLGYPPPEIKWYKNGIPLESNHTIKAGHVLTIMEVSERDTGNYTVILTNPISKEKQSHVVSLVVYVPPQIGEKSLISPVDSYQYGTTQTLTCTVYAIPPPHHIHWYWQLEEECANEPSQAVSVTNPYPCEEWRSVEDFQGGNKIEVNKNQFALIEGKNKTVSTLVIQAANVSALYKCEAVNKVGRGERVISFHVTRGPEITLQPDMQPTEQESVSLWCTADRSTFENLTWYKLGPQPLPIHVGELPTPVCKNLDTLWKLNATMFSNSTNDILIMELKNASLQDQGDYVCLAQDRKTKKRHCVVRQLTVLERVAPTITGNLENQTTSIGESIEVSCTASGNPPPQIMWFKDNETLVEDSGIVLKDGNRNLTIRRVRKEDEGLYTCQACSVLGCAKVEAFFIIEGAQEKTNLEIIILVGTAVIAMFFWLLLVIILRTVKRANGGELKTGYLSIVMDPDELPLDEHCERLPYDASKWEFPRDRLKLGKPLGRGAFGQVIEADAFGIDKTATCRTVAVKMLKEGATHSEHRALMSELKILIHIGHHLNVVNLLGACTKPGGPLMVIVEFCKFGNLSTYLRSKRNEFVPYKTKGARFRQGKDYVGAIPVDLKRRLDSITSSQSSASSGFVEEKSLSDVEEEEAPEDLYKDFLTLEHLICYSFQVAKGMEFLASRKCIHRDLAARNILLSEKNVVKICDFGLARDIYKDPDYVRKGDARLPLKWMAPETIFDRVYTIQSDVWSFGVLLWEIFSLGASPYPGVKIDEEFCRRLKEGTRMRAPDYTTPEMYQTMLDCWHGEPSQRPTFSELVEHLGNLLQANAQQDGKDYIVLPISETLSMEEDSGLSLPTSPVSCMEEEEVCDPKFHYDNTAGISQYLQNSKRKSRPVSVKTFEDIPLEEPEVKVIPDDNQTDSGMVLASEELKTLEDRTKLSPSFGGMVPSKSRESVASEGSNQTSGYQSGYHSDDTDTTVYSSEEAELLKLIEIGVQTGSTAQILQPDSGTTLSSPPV

Binder | IC50
PYAGRGDSVVYGLGGGPGAARGRRAARGRR [ST100,033] | 1100 nM
YDGRGDSVVYGLKKKAARGRRAARGRR [ST100,032] | 430 nM
